B1: Mothers against decapentaplegic homolog 4 (Homo sapiens), Q13485 (parent)
chain: MDNMSITNTPTSNDACLSIVHSLMCHRQGGESETFAKRAIESLVKKLKEKKDELDSLITAITTNGAHPSKCVTIQRTLDGRLQVAGRKGFPHVIYARLWRWPDLHKNELKHVKYCQYAFDLKCDSVCVNPYHYERVVSPGIDLSGLTLQSNAPSSMMVKDEYVHDFEGQPSLSTEGHSIQTIQHPPSNRASTETYSTPALLAPSESNATSTANFPNIPVASTSQPASILGGSHSEGLLQIASGPQPGQQQNGFTGQPATYHHNSTTTWTGSRTAPYTPNLPHHQNGHLQHHPPMPPHPGHYWPVHNELAFQPPISNHPAPEYWCSIAYFEMDVQVGETFKVPSSCPIVTVDGYVDPSGGDRFCLGQLSNVHRTEAIERARLHIGKGVQLECKGEGDVWVRCLSDHAVFVQSYYLDREAGRAPGDAVHKIYPSAYIKVFDLRQCHRQMQQQAATAQAAAAAQAAAVAGNIPGPGSVGGIAPAISLSAAAGIGVDDLRRLCILRMSFVKGWGPDYPRQSIKETPCWIEIHLHRALQLLDEVLHTMPIADPQPLD

Variants of: B1
Conditions: with smad3_human SMAD3, P84022

Row | effect of a mutation on the interaction | Variant
1 | disrupting interaction strength | D351H

Variants of: B1
Conditions: with agap2_human AGAP2, Q99490

Row | effect of a mutation on the interaction | Variant
2 | with no effect | D351H

Variants of: B1
Conditions: with ajuba_human AJUBA

Row | effect of a mutation on the interaction | Variant
3 | with no effect | D351H

Variants of: B1
Conditions: with akts1_human AKT1S1, Q96B36

Row | effect of a mutation on the interaction | Variant
4 | with no effect | D351H

Variants of: B1
Conditions: with akt2_human AKT2, P31751
Chain of akt2_human AKT2, P31751 (P31751 whole entry): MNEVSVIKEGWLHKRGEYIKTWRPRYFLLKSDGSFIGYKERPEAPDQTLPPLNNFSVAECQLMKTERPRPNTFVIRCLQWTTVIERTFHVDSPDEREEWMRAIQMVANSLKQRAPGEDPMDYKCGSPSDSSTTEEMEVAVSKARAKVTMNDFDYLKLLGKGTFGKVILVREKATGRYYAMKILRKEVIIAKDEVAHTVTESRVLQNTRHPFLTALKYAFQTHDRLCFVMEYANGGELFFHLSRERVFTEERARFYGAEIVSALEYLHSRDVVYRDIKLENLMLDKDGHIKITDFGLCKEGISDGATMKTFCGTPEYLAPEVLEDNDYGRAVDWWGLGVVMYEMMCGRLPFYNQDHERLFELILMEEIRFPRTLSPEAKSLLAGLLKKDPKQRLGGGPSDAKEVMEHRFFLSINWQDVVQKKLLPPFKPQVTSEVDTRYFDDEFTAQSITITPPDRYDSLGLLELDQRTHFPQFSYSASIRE

Row | effect of a mutation on the interaction | Variant
5 | with no effect | D351H

Variants of: B1
Conditions: with alk_human ALK

Row | effect of a mutation on the interaction | Variant
6 | with no effect | D351H

Variants of: B1
Conditions: with aph1a_human APH1A

Row | effect of a mutation on the interaction | Variant
7 | with no effect | D351H

Variants of: B1
Conditions: with arnt_human ARNT

Row | effect of a mutation on the interaction | Variant
8 | with no effect | D351H

Variants of: B1
Conditions: with arc1a_human ARPC1A

Row | effect of a mutation on the interaction | Variant
9 | with no effect | D351H

Variants of: B1
Conditions: with asxl1_human ASXL1, Q8IXJ9
Chain of asxl1_human ASXL1, Q8IXJ9 (Q8IXJ9 whole entry): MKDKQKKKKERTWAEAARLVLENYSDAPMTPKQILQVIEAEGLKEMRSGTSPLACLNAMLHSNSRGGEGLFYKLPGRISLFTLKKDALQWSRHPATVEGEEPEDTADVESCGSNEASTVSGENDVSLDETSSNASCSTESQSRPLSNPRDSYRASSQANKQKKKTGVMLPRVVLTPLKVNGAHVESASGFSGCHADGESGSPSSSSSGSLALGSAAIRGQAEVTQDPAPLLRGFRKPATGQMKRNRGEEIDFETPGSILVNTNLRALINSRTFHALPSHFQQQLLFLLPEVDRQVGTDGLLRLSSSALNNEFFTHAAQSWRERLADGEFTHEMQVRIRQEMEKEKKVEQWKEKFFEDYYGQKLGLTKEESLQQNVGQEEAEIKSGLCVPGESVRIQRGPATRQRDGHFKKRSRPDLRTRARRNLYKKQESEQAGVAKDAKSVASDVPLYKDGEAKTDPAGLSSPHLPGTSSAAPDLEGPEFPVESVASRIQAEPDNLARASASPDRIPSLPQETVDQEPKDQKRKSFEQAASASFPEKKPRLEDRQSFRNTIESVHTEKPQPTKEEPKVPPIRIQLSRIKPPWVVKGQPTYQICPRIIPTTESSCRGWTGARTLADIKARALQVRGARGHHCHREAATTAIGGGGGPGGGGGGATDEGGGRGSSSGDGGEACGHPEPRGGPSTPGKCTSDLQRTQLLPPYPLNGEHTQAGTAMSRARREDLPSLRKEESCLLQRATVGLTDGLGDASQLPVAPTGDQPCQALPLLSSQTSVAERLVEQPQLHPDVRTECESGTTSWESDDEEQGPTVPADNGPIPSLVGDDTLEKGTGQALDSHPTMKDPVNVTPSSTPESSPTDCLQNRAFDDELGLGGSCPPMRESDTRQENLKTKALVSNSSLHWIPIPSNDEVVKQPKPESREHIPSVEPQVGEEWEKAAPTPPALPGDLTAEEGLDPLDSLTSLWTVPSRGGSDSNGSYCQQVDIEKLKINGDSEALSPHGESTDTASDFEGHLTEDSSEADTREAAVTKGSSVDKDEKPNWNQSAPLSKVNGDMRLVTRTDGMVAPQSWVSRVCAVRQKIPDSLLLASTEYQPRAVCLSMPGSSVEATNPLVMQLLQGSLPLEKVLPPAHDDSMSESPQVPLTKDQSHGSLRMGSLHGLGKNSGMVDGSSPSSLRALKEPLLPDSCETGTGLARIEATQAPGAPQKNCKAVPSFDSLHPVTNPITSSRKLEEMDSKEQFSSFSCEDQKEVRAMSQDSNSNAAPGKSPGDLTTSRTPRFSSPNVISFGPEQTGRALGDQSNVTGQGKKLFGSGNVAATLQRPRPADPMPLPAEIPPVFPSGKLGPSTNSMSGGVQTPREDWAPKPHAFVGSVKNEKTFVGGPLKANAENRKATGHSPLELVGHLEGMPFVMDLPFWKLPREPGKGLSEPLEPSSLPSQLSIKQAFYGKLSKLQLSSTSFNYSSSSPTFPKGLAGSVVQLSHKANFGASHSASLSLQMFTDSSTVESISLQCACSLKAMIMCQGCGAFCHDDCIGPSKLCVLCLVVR

Row | effect of a mutation on the interaction | Variant
10 | with no effect | D351H

Variants of: B1
Conditions: with atpb_human ATP5F1B

Row | effect of a mutation on the interaction | Variant
11 | with no effect | D351H

Variants of: B1
Conditions: with aurkb_human AURKB

Row | effect of a mutation on the interaction | Variant
12 | with no effect | D351H

Variants of: B1
Conditions: with ufo_human AXL

Row | effect of a mutation on the interaction | Variant
13 | with no effect | D351H

Variants of: B1
Conditions: with za2g_human AZGP1, P25311
Chain of za2g_human AZGP1, P25311 (P25311 whole entry): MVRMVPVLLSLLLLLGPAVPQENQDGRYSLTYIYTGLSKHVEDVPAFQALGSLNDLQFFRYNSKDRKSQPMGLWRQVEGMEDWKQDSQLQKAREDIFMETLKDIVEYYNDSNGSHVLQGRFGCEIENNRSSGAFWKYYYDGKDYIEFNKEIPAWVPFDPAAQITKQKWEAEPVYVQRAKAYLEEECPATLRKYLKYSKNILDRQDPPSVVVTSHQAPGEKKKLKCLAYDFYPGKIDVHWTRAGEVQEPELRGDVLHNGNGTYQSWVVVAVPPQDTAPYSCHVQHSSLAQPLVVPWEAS

Row | effect of a mutation on the interaction | Variant
14 | with no effect | D351H

Variants of: B1
Conditions: with b2mg_human B2M

Row | effect of a mutation on the interaction | Variant
15 | with no effect | D351H

Variants of: B1
Conditions: with becn1_human BECN1, Q14457
Chain of becn1_human BECN1, Q14457 (Q14457 whole entry): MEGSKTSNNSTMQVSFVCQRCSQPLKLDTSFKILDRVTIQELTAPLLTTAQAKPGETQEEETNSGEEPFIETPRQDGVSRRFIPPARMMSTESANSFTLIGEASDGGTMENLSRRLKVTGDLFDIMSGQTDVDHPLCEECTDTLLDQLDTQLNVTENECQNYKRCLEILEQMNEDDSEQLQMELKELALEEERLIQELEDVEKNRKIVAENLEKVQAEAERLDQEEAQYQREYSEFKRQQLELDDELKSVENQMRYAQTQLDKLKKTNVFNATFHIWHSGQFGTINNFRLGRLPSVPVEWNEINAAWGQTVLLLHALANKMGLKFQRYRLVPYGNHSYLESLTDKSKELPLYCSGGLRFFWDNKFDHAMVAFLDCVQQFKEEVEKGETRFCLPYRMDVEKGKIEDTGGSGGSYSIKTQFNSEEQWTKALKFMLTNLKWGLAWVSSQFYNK

Row | effect of a mutation on the interaction | Variant
16 | with no effect | D351H

Variants of: B1
Conditions: with birc2_human BIRC2, Q13490
Chain of birc2_human BIRC2, Q13490 (Q13490 whole entry): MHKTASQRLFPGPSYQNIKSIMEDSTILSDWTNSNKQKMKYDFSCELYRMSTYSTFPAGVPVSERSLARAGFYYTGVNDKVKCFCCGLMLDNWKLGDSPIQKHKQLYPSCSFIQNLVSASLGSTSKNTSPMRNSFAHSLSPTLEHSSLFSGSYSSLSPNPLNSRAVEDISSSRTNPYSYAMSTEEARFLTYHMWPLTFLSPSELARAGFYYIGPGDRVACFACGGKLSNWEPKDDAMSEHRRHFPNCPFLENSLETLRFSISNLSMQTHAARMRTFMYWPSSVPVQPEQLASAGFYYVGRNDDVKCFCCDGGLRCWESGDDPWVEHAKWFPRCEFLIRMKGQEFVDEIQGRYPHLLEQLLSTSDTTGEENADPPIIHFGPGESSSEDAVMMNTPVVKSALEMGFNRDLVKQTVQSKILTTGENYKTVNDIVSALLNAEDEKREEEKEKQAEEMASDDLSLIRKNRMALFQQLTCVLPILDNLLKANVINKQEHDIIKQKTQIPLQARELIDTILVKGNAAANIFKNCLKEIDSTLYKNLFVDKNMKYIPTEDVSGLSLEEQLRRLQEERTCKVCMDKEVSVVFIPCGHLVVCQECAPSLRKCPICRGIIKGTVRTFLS

Row | effect of a mutation on the interaction | Variant
17 | with no effect | D351H

Variants of: B1
Conditions: with braf_human BRAF

Row | effect of a mutation on the interaction | Variant
18 | with no effect | D351H

Variants of: B1
Conditions: with baba2_human BABAM2, Q9NXR7
Chain of baba2_human BABAM2, Q9NXR7 (Q9NXR7 whole entry): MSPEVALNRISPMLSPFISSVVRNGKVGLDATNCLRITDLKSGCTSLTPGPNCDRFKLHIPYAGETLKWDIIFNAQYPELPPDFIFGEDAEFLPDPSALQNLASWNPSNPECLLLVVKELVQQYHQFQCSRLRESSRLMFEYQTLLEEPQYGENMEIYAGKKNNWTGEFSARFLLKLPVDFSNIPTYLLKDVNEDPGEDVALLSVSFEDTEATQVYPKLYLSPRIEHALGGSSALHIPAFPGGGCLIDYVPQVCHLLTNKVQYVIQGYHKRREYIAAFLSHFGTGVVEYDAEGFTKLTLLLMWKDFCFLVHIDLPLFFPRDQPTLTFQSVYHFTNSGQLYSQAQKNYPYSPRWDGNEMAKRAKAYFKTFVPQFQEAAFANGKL

Row | effect of a mutation on the interaction | Variant
19 | with no effect | D351H

Variants of: B1
Conditions: with btg1_human BTG1, P62324

Row | effect of a mutation on the interaction | Variant
20 | with no effect | D351H

Variants of: B1
Conditions: with cbl_human CBL

Row | effect of a mutation on the interaction | Variant
21 | with no effect | D351H

Variants of: B1
Conditions: with cblb_human CBLB

Row | effect of a mutation on the interaction | Variant
22 | with no effect | D351H

Variants of: B1
Conditions: with ccnd1_human CCND1, P24385

Row | effect of a mutation on the interaction | Variant
23 | with no effect | D351H

Variants of: B1
Conditions: with ccnd2_human CCND2, P30279

Row | effect of a mutation on the interaction | Variant
24 | with no effect | D351H

Variants of: B1
Conditions: with ccnd3_human CCND3, P30281
Chain of ccnd3_human CCND3, P30281 (P30281 whole entry): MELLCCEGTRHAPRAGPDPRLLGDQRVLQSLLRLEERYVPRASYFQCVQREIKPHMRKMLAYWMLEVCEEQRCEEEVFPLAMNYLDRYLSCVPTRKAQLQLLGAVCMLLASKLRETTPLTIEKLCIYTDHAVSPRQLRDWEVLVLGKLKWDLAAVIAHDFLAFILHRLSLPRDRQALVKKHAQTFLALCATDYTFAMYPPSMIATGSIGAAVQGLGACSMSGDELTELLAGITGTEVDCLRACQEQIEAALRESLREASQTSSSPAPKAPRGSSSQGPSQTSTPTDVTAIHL

Row | effect of a mutation on the interaction | Variant
25 | with no effect | D351H

Variants of: B1
Conditions: with ccne1_human CCNE1, P24864
Chain of ccne1_human CCNE1, P24864 (P24864 whole entry): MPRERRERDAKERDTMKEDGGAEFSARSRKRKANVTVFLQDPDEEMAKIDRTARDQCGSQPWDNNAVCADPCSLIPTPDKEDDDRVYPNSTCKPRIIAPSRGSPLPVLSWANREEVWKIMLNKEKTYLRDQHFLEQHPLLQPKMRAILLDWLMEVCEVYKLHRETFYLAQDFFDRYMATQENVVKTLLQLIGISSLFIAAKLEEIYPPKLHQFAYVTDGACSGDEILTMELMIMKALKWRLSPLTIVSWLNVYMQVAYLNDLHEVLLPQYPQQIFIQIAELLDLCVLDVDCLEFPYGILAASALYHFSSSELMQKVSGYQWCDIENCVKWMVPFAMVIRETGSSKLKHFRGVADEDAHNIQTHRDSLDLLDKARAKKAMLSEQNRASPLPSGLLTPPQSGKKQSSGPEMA

Row | effect of a mutation on the interaction | Variant
26 | with no effect | D351H

Variants of: B1
Conditions: with cd44_human CD44, P16070

Row | effect of a mutation on the interaction | Variant
27 | with no effect | D351H

Variants of: B1
Conditions: with cd79b_human CD79B

Row | effect of a mutation on the interaction | Variant
28 | with no effect | D351H

Variants of: B1
Conditions: with cdk4_human CDK4, P11802

Row | effect of a mutation on the interaction | Variant
29 | with no effect | D351H

Variants of: B1
Conditions: with cdn2b_human CDKN2B

Row | effect of a mutation on the interaction | Variant
30 | with no effect | D351H

Variants of: B1
Conditions: with cdn2c_human CDKN2C

Row | effect of a mutation on the interaction | Variant
31 | with no effect | D351H

Variants of: B1
Conditions: with cebpa_human CEBPA

Row | effect of a mutation on the interaction | Variant
32 | with no effect | D351H

Variants of: B1
Conditions: with chd1l_human CHD1L

Row | effect of a mutation on the interaction | Variant
33 | with no effect | D351H

Variants of: B1
Conditions: with chd2_human CHD2, O14647

Row | effect of a mutation on the interaction | Variant
34 | with no effect | D351H

Variants of: B1
Conditions: with ch3l1_human CHI3L1, P36222
Chain of ch3l1_human CHI3L1, P36222 (P36222 whole entry): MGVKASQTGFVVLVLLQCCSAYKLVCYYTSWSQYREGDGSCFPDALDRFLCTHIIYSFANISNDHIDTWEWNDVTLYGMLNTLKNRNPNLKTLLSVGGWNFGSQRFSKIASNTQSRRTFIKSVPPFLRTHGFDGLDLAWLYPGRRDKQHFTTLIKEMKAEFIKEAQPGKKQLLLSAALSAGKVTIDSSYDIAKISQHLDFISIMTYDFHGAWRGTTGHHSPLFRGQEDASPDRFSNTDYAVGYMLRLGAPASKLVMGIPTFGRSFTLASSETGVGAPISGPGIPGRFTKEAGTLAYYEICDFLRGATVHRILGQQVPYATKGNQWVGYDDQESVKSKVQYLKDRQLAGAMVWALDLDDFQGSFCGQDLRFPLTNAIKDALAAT

Row | effect of a mutation on the interaction | Variant
35 | with no effect | D351H

Variants of: B1
Conditions: with csf1r_human CSF1R

Row | effect of a mutation on the interaction | Variant
36 | with no effect | D351H

Variants of: B1
Conditions: with ctna1_human CTNNA1, P35221

Row | effect of a mutation on the interaction | Variant
37 | with no effect | D351H

Variants of: B1
Conditions: with ctnb1_human CTNNB1, P35222

Row | effect of a mutation on the interaction | Variant
38 | with no effect | D351H

Variants of: B1
Conditions: with cul3_human CUL3, Q13618

Row | effect of a mutation on the interaction | Variant
39 | with no effect | D351H

Variants of: B1
Conditions: with dicer_human DICER1, Q9UPY3

Row | effect of a mutation on the interaction | Variant
40 | with no effect | D351H

Variants of: B1
Conditions: with duox2_human DUOX2, Q9NRD8

Row | effect of a mutation on the interaction | Variant
41 | with no effect | D351H

Variants of: B1
Conditions: with e2f1_human E2F1, Q01094

Row | effect of a mutation on the interaction | Variant
42 | with no effect | D351H

Variants of: B1
Conditions: with e2f2_human E2F2, Q14209

Row | effect of a mutation on the interaction | Variant
43 | with no effect | D351H

Source: IntAct's records for PubMed 35512704
